Conditions: Homo sapiens; pH 7.4; Thermal; CD; Phosphate buffer saline; whole UniProt chain shown

B1: SH2 domain-containing protein 1A wild type, O60880 (protein)
chain: MDAVAVYHGKISRETGEKLLLATGLDGSYLLRDSESVPGVYCLCVLYHGYIYTYRVSQTETGSWSAETAPGVHKRYFRKIKNLISAFQKPDQGIVIPLQYPVEKKSSARSTQGTTGIREDPDVCLKAP
Tm: 57.8 °C
